Our source for the percent dimer values is PMC2783235.

The target of experiment [1] is L283C (single-Cys mutant of FT-HT-Xa) (S. cerevisiae) (UniProt D6VTK4). The experiment in a line: cross-linking.
Experiment [2] has the same target. The experiment in a line: SDS-PAGE and western blot of membranes. Background: Immunoblotting shows a protein as a band on a membrane.
The target is the same in experiment [3]. As to the kind of experiment: cross-linking. The source holds these as a separate data set.
The target is the same in experiment [4]. The experiment in a line: cross-linking. This is another data set of the same source.
Experiment [5] addresses A285C (single-Cys mutant of FT-HT-Xa) (S. cerevisiae) (UniProt D6VTK4). As to the kind of experiment: cross-linking.
The target is the same in experiment [6]. As to the kind of experiment: SDS-PAGE and western blot of membranes.
The target is the same in experiment [7]. As to the kind of experiment: cross-linking. This is another data set of the same source.
Experiment [8] has the same target. The experiment in a line: cross-linking. The source holds these as a separate data set.
Experiment [9] addresses L287C (single-Cys mutant of FT-HT-Xa) (S. cerevisiae) (UniProt D6VTK4). The experiment in a line: cross-linking.
Experiment [10] shares this target. As to the kind of experiment: SDS-PAGE and western blot of membranes.
For experiment [11] the target is unchanged. The experiment in a line: cross-linking. The source holds these as a separate data set.
Experiment [12] has the same target. The experiment in a line: cross-linking. This is another data set of the same source.
For experiment [13], the target named is T282C (single-Cys mutant of FT-HT-Xa) (S. cerevisiae) (UniProt D6VTK4). As to the kind of experiment: cross-linking.
Experiment [14] has the same target. As to the kind of experiment: SDS-PAGE and western blot of membranes.
Experiment [15] has the same target. The experiment in a line: cross-linking. The source holds these as a separate data set.
The target is the same in experiment [16]. As to the kind of experiment: cross-linking. This is another data set of the same source.
In experiment [17] the target is A281C (single-Cys mutant of FT-HT-Xa) (S. cerevisiae) (UniProt D6VTK4). The experiment in a line: cross-linking.
Experiment [18] shares this target. The experiment in a line: SDS-PAGE and western blot of membranes.
The target is the same in experiment [19]. As to the kind of experiment: cross-linking. The source holds these as a separate data set.
Experiment [20] shares this target. As to the kind of experiment: cross-linking. The source holds these as a separate data set.
Experiment [21] concerns the target L284C (single-Cys mutant of FT-HT-Xa) (S. cerevisiae) (UniProt D6VTK4). The experiment in a line: cross-linking.
For experiment [22] the target is unchanged. The experiment in a line: SDS-PAGE and western blot of membranes.
The target is the same in experiment [23]. As to the kind of experiment: cross-linking. The source holds these as a separate data set.
Experiment [24] has the same target. As to the kind of experiment: cross-linking. This is another data set of the same source.
The target of experiment [25] is V280C (single-Cys mutant of FT-HT-Xa) (S. cerevisiae) (UniProt D6VTK4). As to the kind of experiment: cross-linking.
Experiment [26] shares this target. As to the kind of experiment: SDS-PAGE and western blot of membranes.
Experiment [27] has the same target. As to the kind of experiment: cross-linking. The source holds these as a separate data set.
Experiment [28] shares this target. As to the kind of experiment: cross-linking. The source holds these as a separate data set.
Experiment [29] has as its target S288C (single-Cys mutant of FT-HT-Xa) (S. cerevisiae) (UniProt D6VTK4). As to the kind of experiment: cross-linking.
Experiment [30] shares this target. The experiment in a line: SDS-PAGE and western blot of membranes.
Experiment [31] has the same target. As to the kind of experiment: cross-linking. This is another data set of the same source.
Experiment [32] shares this target. As to the kind of experiment: cross-linking. This is another data set of the same source.
The target of experiment [33] is V286C (single-Cys mutant of FT-HT-Xa) (S. cerevisiae) (UniProt D6VTK4). The experiment in a line: cross-linking.
For experiment [34] the target is unchanged. As to the kind of experiment: SDS-PAGE and western blot of membranes.
For experiment [35] the target is unchanged. The experiment in a line: cross-linking. The source holds these as a separate data set.
The target is the same in experiment [36]. As to the kind of experiment: cross-linking. The source holds these as a separate data set.

On to “L283C (single-Cys mutant of FT-HT-Xa) (from UniProt D6VTK4 1-431) (receptor)”, for which the percent dimer in [1] was determined as 10.7%; in [2], 16.6%; in experiment [3] it was 13.3%; in [4], 15.7%.

In the case of “A285C (single-Cys mutant of FT-HT-Xa) (from UniProt D6VTK4 1-431) (receptor)”, the percent dimer in experiment [5] was 17.7%; in experiment [6] it was 16.5%; in experiment [7], 16.5%; in experiment [8] it was 53.5%.

Regarding “L287C (single-Cys mutant of FT-HT-Xa) (from UniProt D6VTK4 1-431) (receptor)”, the percent dimer was 16% in [9], 16% in experiment [10], 11.3% in experiment [11] and 14.3% in [12].

Take “T282C (single-Cys mutant of FT-HT-Xa) (from UniProt D6VTK4 1-431) (receptor)”: the percent dimer in [13] stood at 11.7%; in experiment [14], 11.7%; in experiment [15], 12%; in [16] it was 15.4%.

Take “A281C (single-Cys mutant of FT-HT-Xa) (from UniProt D6VTK4 1-431) (receptor)”: the percent dimer is 11.3% in [17], 16.8% in [18], 14.3% in experiment [19] and 11.9% in [20].

“L284C (single-Cys mutant of FT-HT-Xa) (from UniProt D6VTK4 1-431) (receptor)”: the percent dimer was found to be 15.3% in experiment [21], 15.2% in experiment [22], 17.7% in experiment [23] and 12% in experiment [24].

As for “V280C (single-Cys mutant of FT-HT-Xa) (from UniProt D6VTK4 1-431) (receptor)”, the percent dimer in experiment [25] stood at 12.4%; in [26], 15.3%; in experiment [27], 16.3%; in experiment [28], 14.7%.

On to “S288C (single-Cys mutant of FT-HT-Xa) (from UniProt D6VTK4 1-431) (receptor)”, for which the percent dimer in experiment [29] came to 12.6%; in experiment [30], 14.7%; in experiment [31] it was 11.5%; in [32], 14.7%.

“V286C (single-Cys mutant of FT-HT-Xa) (from UniProt D6VTK4 1-431) (receptor)”: the percent dimer in experiment [33] is 15.9%; in experiment [34], 15.6%; in experiment [35] it was 13.2%; in experiment [36], 17%.
